Measured values published in the supplement of paper PMC10567573.
± gives the standard deviation.

Assay: protein stability index of a GFP-peptide fusion (GPS, HEK-293T) (PSI 1-6); higher = more stable
[1] = treatment: DMSO, c terminus: a fixed tail appended
[2] = treatment: MLN4924 1 uM, 8 h, c terminus: a fixed tail appended
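Note: 24-mer peptide tiles fused after GFP, lentivirally expressed, FACS-sorted into six equal bins by GFP/DsRed ratio, decoded by Illumina sequencing, PSI is the read-weighted mean bin number.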

| Sequence | protein stability index [1] | protein stability index [2] | protein stability index (treatment: DMSO, c terminus: native) | protein stability index (treatment: MLN4924 1 uM, 8 h, c terminus: native) |
| --- | --- | --- | --- | --- |
| WLLNNLMTHQNVELFKELSINVMK [GMCL1] | 2.28 ± 0.54 | 2.08 ± 0.3 |  |  |
| HSQELTNEKEKALQAQVQYQQQHE [SASS6] | 5.45 ± 0.26 | 5.51 ± 0.14 |  |  |
| IHLDPRTREGFTLLHLAVNSNTPV [FEM1B] | 2.24 ± 0.41 | 2.17 ± 0.27 |  |  |
| APPTPPEEEDLRRRLKYFFMSPCD [MCOLN1] | 4.27 ± 0.23 | 4.15 ± 0.23 |  |  |
| GYSTHADFVLEMNTAKSTSRVTAF [NLN] | 2.29 ± 0.2 | 2.51 ± 0.12 |  |  |
| KTVCGYYTSAGTYGLDSVKKKCLE [GMCL1] | 3.16 ± 0.3 | 2.97 ± 0.49 |  |  |
| HSGEKPYKCSDCGKTFKQSSNLGQ [ZNF232] | 3.76 ± 0.3 | 3.57 ± 0.37 |  |  |
| VRKVPPGYSIKVFDFERSGLQHAP [SMAD6] | 2.31 ± 0.33 | 2.63 ± 0.035 |  |  |
| GERPYKCSECGESFSRSSRLMSHQ [ZNF263] | 3.25 ± 0.51 | 3.53 ± 0.83 |  |  |
| EGKTKKGVLEAPDTQVNPVGSVSV [FBXO34] | 5.08 ± 0.17 | 5.14 ± 0.11 |  |  |
| SSGRSCRNERSIQEKLQVLMAEGL [SMG5] | 2.64 ± 0.39 | 2.88 ± 0.12 |  |  |
| QVAPLTHVFQRQKSELSDGIAILV [TRIM55] | 2.26 ± 0.49 | 2.26 ± 0.22 |  |  |
| GFDTDGLSSAVWPGGETEALTRLE [CRY1] | 4.54 ± 0.73 | 4.76 ± 0.29 |  |  |
| FFAFEHSEEYQQAQHKFLVAVESM [TCF25] | 3.59 ± 0.35 | 3.56 ± 0.4 |  |  |
| DEALAIAALELLPRELFPPLFMAA [PRAME] | 2.78 ± 0.21 | 2.61 ± 0.55 |  |  |
| LKKSRGKFIKPWESPDEMELDELL [PTPRD] | 3.52 ± 0.35 | 3.15 ± 0.44 |  |  |
| MLEASEWATIEGLVELLQPFKQVA [ZBED1] | 2.23 ± 0.76 | 2.27 ± 0.23 |  |  |
| LCQVAQEALASAGASCCGQPLASH [VENTX] | 3.38 ± 0.27 | 3.42 ± 0.15 |  |  |
| IVISPFRLEELTNRLASLQQENKV [CCDC6] | 2.12 ± 0.15 | 2.4 ± 0.25 |  |  |
| QTGDPTSPIKLSPTSPVYRGSSSG [MTUS2] | 4.76 ± 0.26 | 4.82 ± 0.2 |  |  |
| VSWFGSPTTSFLSISKLSPFSEFF [PWWP2B] | 2.32 ± 0.62 | 2.35 ± 0.41 |  |  |
| MTVVRMDASVQPGPFRTLLQFLYT [RHOBTB1] | 2.41 ± 0.4 | 2.25 ± 0.4 |  |  |

| Sequence | protein stability index [1] | protein stability index [2] | protein stability index (treatment: DMSO, c terminus: native) | protein stability index (treatment: MLN4924 1 uM, 8 h, c terminus: native) |
| --- | --- | --- | --- | --- |
| LNLTEGFAVLHWKPPQNPVDTYDV [TNXB] | 2.5 ± 0.66 | 2.69 ± 0.45 |  |  |
| IPLLSSVNVSDRGGRTALHHAALN [ANKRD44] | 3.42 ± 0.38 | 3.16 ± 0.3 |  |  |
| QVITLDQVLDEVIPIHGKGNFPTM [TENT5D] | 2.29 ± 0.24 | 2.32 ± 0.25 |  |  |
| NKQKCVERNEVRNVFKELQIMQGL [STK32A] | 2.94 ± 0.4 | 2.93 ± 0.24 |  |  |
| WGDCSRTCGGGVQFSSRDCTRPVP [ADAMTS4] | 2.9 ± 0.95 | 2.94 ± 0.26 |  |  |
| DEIRWKYHSDTTPKIIESQRPPH [IQUB] |  |  | 4.25 ± 0.36 | 4.09 ± 0.29 |
| AKEEGGEEVAKAVLEQEETAAASR [EPB41L3] | 5.47 ± 0.37 | 5.79 ± 0.095 |  |  |
| IKPENILITKQGIIKICDFGFAQI [CDKL4] | 2.18 ± 0.29 | 2.49 ± 1 |  |  |
| LNSMPKRLCLVCGDIASGYHYGVA [ESRRG] | 2.48 ± 0.22 | 2.23 ± 0.39 |  |  |
| DFIHRHCQDQNVPVENFFVKCNGA [SDE2] | 2.83 ± 0.088 | 2.95 ± 0.34 |  |  |
| VVGGAMFFIGFTALVIMWQKHYVY [COX4I1] | 3.11 ± 0.29 | 3.24 ± 0.49 |  |  |
| QKQQAPRMDTPPPEERLEKQNEKL [CCDC89] | 5.46 ± 0.44 | 5.62 ± 0.2 |  |  |
| QYEKMAEKNRKDAEDWFFSKTEEL [KRT17] | 4.68 ± 0.18 | 4.86 ± 0.18 |  |  |
| RETNKSRGFAFVTFESPADAKDAA [RBMX] | 4.34 ± 0.32 | 4.39 ± 0.38 |  |  |
| SGSGNRLDGKKKGVEPSPSPIKPG [UFD1] | 4.61 ± 0.29 | 4.72 ± 0.079 |  |  |
| NLLLQPTTNPHTSASHRPCVNGDV [SMG5] | 3.48 ± 0.23 | 3.54 ± 0.43 |  |  |
| DERIFSLTRRLAHGEELRVSARSR [HAGHL] | 4.1 ± 0.33 | 4.12 ± 0.32 |  |  |
| ICEATQIIDYLEQTFLDERTPRLM [GDAP1] | 2.39 ± 0.24 | 2.45 ± 0.18 |  |  |
| TWVTVKNGSGDMIFEGNSEKEIPV [CPXM2] | 4 ± 0.2 | 3.9 ± 0.081 |  |  |
| QKVTCFYQPAPYFAAEARYPIYVI [TENT5D] | 2.89 ± 0.4 | 2.54 ± 0.49 |  |  |
| ATRAMGLLNTLSLAFVGGLPLAYQ [TMEM175] | 3.11 ± 0.32 | 2.99 ± 0.56 |  |  |
| KTCNPPDAGPMVVHCSAGVGRTGC [PTPRD] | 3.5 ± 0.32 | 3.5 ± 0.34 |  |  |
